Test results published in publication PMC2577357 (Nucleic Acids Research, 2008).

B1: Methanobacterium RNA ligase (MthRnl), full-length, His10-tagged (enzyme, Methanobacterium thermoautotrophicum ΔH, UniProt O27289 1-381, looked up)
chain: MNSMNSDIPFDLIQERTGVPSSRLKVAFARGSLRLLESAGMQALLFKKPLGDLEAGTVIYLGDETEVIRGFPKIRRTLLLSPTIQEHFRDRVAVEEKMNGYNVRIACLSSGETVALTRGGHVCPFTTRKAQELLDLSEFFREHPDLVICGEMIGRDNPYVSQDYPEVGPLGFRVFDLREKNTNRPLPVEERRALLDSYGLPNVRLFGVYPIEEAASEVADIIRALGMAGREGVVMKDPSMEVPPLKYTSSQAHARELAYAFSYPFDFGRPFFFSRVIREGFQAYELDESDDETRERARRLGEAIIYPMLERIKSISAGEAAYEDTVIDVEDREAAEEFIRHLVRLGVSATLADYRDGRATIRRFYQSTTDRINNYLKGGLY

Columns and labels:
MthRnl = target: T1, MthRnl (Methanobacterium thermoautotrophicum ΔH, UniProt O27289 1-381); experiment: EMSA
T1 sequence: B1 chain

[1] = target: the molecule itself; experiment: glycerol gradient sedimentation

| Binder | Kd (MthRnl) [nM] | stoichiometry N [1] |
| --- | --- | --- |
| ATTCCGATAGTGCGTGTCGCCCTT (ssDNA, 5'-phosphate) [pDNA 24-mer] | ~2000 | – |
| B1 | – | 2 |
| AUUCCGAUAGUGCGUGUCGCCCUU (ssRNA, 5'-phosphate) [pRNA 24-mer] | ~1500 | – |
